Results as given in US20200062863A1 (CSL BEHRING, published 2020).

How the values were obtained:
[1] = target: T1, human FXIIa (human, UniProt P00748 20-615, limits assumed); assay: cell-based or functional assay
T1 sequence: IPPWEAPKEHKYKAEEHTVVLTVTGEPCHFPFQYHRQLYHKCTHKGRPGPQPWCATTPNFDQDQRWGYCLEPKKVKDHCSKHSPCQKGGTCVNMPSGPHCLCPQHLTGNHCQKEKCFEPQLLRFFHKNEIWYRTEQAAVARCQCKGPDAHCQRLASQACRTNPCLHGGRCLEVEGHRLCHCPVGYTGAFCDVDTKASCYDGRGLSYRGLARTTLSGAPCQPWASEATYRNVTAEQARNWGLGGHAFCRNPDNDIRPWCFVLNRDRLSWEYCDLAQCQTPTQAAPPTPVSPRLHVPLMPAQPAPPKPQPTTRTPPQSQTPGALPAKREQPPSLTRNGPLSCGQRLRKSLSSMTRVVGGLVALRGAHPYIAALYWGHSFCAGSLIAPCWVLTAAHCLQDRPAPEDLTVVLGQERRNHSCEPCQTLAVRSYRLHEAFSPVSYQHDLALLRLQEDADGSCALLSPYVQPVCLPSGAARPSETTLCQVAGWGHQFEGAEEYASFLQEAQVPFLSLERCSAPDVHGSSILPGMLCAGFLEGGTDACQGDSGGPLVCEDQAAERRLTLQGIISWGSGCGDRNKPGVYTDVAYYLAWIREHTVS

[2] = target: T2, human Factor XIIa-alpha (human, UniProt P00748 20-615); assay: cell-based or functional assay
T2 sequence: T1 sequence

[3] = target: T3, human Factor XII (human, UniProt P00748 20-615); assay: SPR (Biacore), purified IgG captured on anti-human IgG, FXII 0-500 nM, 1:1 fit, 25 C
T3 construct: Zymogen bought from Enzyme Research Laboratories; also called FXII
T3 sequence: T1 sequence

[4] = target: T4, human Factor XIIa-beta (human, UniProt P00748 354-615, limits assumed); assay: SPR (Biacore), purified IgG captured on anti-human IgG, FXIIa beta 0-40 nM, 1:1 fit, 25 C
T4 construct: Bought from Enzyme Research Laboratories; also called FXIIa beta; FXIIa-beta
T4 sequence: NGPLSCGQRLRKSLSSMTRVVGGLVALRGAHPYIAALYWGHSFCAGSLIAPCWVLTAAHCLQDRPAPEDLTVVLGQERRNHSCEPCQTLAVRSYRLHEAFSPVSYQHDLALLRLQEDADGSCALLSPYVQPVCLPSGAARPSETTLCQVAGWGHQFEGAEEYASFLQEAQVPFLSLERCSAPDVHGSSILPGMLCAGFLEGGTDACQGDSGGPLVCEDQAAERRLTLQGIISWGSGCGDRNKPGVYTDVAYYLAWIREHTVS

[5] = target: T4, human Factor XIIa-beta; assay: SPR (Biacore), purified IgG4 captured on anti-human IgG, FXIIa beta 0-40 nM, 1:1 fit, 25 C

B1: monoclonal antibody 3F7 (fully human IgG4/lambda) (antibody, V domains shown)
VH: EVQLLESGGGLVQPGGSLRLSCAASGFTFSKYIMQWVRQAPGKGLEWVSGIRPSGGTTVYADSVKGRFTISRDNSKNTLYLQMNSLRAEDTAVYYCARALPRSGYLISPHYYYYALDVWGQGTTVTVSS
VL: QSELTQPPSASGTPGQRVTISCSGSSSNIGRNYVYWYQQVPGTAPKLLIYSNNQRPSGVPDRFSGSKSGTSASLVISGLRSEDEADYYCAAWDASLRGVFGGGTKLTVLG
notes: also called 3F7 mAb; MAb 3F7
potency in the FXIIa amidolytic activity assay, against OT-2 [1]: ~2 fold | % Inhibition, ratio FXIIa-alpha:Antibody 1:0.1 [2]: 35.5% | % Inhibition, ratio FXIIa-alpha:Antibody 1:0.1 (second 3F7 block) [2]: 38.3% | % Inhibition, ratio FXIIa-alpha:Antibody 1:0.2 [2]: 62.5% | % Inhibition, ratio FXIIa-alpha:Antibody 1:0.2 (second 3F7 block) [2]: 66.8% | % Inhibition, ratio FXIIa-alpha:Antibody 1:0.5 [2]: 91.9% | % Inhibition, ratio FXIIa-alpha:Antibody 1:0.5 (second 3F7 block) [2]: 91.4% | % Inhibition, ratio FXIIa-alpha:Antibody 1:1 [2]: 97.9% | % Inhibition, ratio FXIIa-alpha:Antibody 1:1 (second 3F7 block) [2]: 96.1% | % Inhibition, ratio FXIIa-alpha:Antibody 1:2 [2]: 100% | % Inhibition, ratio FXIIa-alpha:Antibody 1:2 (second 3F7 block) [2]: 100% | % Inhibition, ratio FXIIa-alpha:Antibody 1:5 [2]: 100% | % Inhibition, ratio FXIIa-alpha:Antibody 1:5 (second 3F7 block) [2]: 100% | % Inhibition, ratio FXIIa-alpha:Antibody 1:10 [2]: 100% | % Inhibition, ratio FXIIa-alpha:Antibody 1:10 (second 3F7 block) [2]: 100% | Kd [3]: 121 nM | Kd [4]: 6.2 nM | Kd [5]: 8.6 nM | koff [5]: 0.0011 s⁻¹ | kon [5]: 120000 M⁻¹ s⁻¹
